# Measurements from patent publication US20260184791A1 (KYMAB, published 2026).
# T1: human ICOS expressed on the surface of cells (human, UniProt Q9Y6W8 21-199)
# T1 construct: also called hICOS; Human ICOS CHO
# T1 sequence: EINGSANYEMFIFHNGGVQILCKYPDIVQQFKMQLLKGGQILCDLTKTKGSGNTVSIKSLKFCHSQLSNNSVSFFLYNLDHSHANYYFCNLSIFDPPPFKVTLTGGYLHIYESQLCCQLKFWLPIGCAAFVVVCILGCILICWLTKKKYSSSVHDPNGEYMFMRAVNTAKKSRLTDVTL
# T2: mouse ICOS expressed on the surface of CHO-S cells (mouse, UniProt Q9WVS0 21-141)
# T2 construct: The construct expressed in CHO-S cells is not specified; also called mICOS; Mouse ICOS CHO
# T2 sequence: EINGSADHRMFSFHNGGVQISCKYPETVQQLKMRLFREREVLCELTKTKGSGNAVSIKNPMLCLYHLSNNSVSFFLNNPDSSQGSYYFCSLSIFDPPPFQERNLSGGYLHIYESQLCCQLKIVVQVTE
# Columns and labels:
# [1] = molecular target: T1, human ICOS expressed on the surface of …; assay: flow cytometry, CHO-S cells expressing ICOS, purified IgG1
# [2] = molecular target: T2, mouse ICOS expressed on the surface of …; assay: as above
# [3] = molecular target: T1, human ICOS expressed on the surface of …; assay: Receptor occupancy by chip cytometry on ICOS+ CD4 memory cells (ICOS+CD3+CD4+FoxP3-CD45RA-) from blood of patients dosed with KY1044 every 3 weeks; samples at C1D1, C1D8, C2D1 and C2D8
fold above the average of geomean of the negative control [1] [fold],fold above the average of geomean of the negative control [2] [fold],binding result [3],Binder
> 10,> 10,–,"CL-74570 (antibody, human IgG1, V domains shown) VH: EVQLVESGGGVIRPGGSLRLSCAASGFTFDDYGMSWVRQAPGKGLEWVSGINWIGDNTDYADSVKGRFTISRDNAKNSLYLQMNSLRAEDTALYYCARDYFGSGSYYNVPF VL: not shown"
> 10,> 10,–,"CL-61091 (antibody, human IgG1, V domains shown) VH: QVQLMQSGTEVKKPGASVKVSCKTSGYTFTTYGITWVRQAPGQGLEWMGWISAYSGDTDYAQKFQGRVTVTTDTSTNTAYMELRSLKSDDTAVYYCARSSGWPHHYGMDVWGQGTTVTVSS VL: DIVMTQSPLSLPVTPGEPASISCRSSQSLLHSNGFNYFDWYLQKPGQSPQLLIFLVSNRASGVPDRFSGSGSGTDFTLKISRVEAEDVGIYYCMQALQTPLTFGGGTKVEIK"
–,–,binds,"KY1044 (antibody, human IgG1, kappa, V domains shown, also called STIM003; SAR445256) VH: EVQLVESGGGVVRPGGSLRLSCVASGVTFDDYGMSWVRQAPGKGLEWVSGINWNGGDTDYSDSVKGRFTISRDNAKNSLYLQMNSLRAEDTALYYCARDFYGSGSYYHVPFDYWGQGILVTVSS VL: EIVLTQSPGTLSLSPGERATLSCRASQSVSRSYLAWYQQKRGQAPRLLIYGASSRATGIPDRFSGDGSGTDFTLSISRLEPEDFAVYYCHQYDMSPFTFGPGTKVDIKR"
